We go through 40 sequences from the nanobody polyreactivity screen of Harvey et al. (2022).

The data set is described as follows: yeast display, Sf9 membrane polyspecificity reagent, FACS + sequencing; frameworks hold sequencing errors. In short, it runs like this: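 Using colony PCR, genes from sorted yeast display clones were amplified, then sequenced on MiSeq at 2 × 250 and filtered by CDR length. The clones had been stained with 10% biotinylated, detergent-solubilized Sf9 membrane reagent for 1 hour at 4 °C and sorted by FACS into low and high (top ~1%) gates on anti-HA and streptavidin fluorescence. Polyreactivity labels come from the gate of origin.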
For “QVQLVESGGGLVQAGGSLRLSCAASGSILSVNAMGWYRQAPGKERELVAAINWSGGSTYYADSVKGRFTISRDNAKNTVYLQMNSLKPEDTAVYYCAARWRYSYVGDFDYWGQGTQVTVSS”, the “polyreactivity (PSR sort gate)” value is reported as “high polyreactivity”.
“QVQLVESGGGLVQAGGSLRLSCAASGSILSYYAMGWYRQAPGKERELVAAISKTGGSTYYADSVKGRFTISRDNANNTVYLHMNSLKPEVTAVYYCAAVDNIGRYEYWGQGTQVTVSS”: the “polyreactivity (PSR sort gate)” value is given as “high polyreactivity”.
For “QVQLVESGGGLVQAGGSLRLSCAASGSILTGNAMGWYRPAPGKERELVAAISAGGTRTYYADSVKGRFTISRDNAKNTVYLQMNSLKPEDTAVYYCAADSSKRIGYDYWGQGTQVTVSS”, the “polyreactivity (PSR sort gate)” value is on record as “high polyreactivity”.
Under “QVQLVESGGGLVQAGGSLRLSCAASGSILTLYSMGWYRQAPGKERELVAAISSTGGRTYYADSVKGRFTISRDNAKNTVYVQMNSLKPEDTAFYYCAARGWGGLRSYGYYYWGQGTQVTVSS” stands “high polyreactivity”.
Take “QVQLVESGGGLVQAGGSLRLSCAASGSILVEYAMGWYRQAPGKERELVAAISSNGGSTYYADSVKGRFTISRDNAKNTVYLQMNSLKPEDTAVYYCATRQSWSDYYLNVDYDYWGQGTKVTVSS”: the “polyreactivity (PSR sort gate)” value is reported as “low polyreactivity”.
Then “QVQLVESGGGLVQAGGSLRLSCAASGSILVSYAMGWYRPAPGKERELVAAITSGGRTKYADSVKGRFTISRDNAKNTVYLQMNSLKPEDTAVYYCAADDPLSYQFDYWGQGTQVTVSS”, with “high polyreactivity”.
Then “QVQLVESGGGLVQAGGSLRLSCAASGSILYRYAMGWSRPAPGKERELDAAISYNGGRTYYADSVKGRFSISRDNAKNTVYLQMNSLKPEDTAVYYCNAAGRDDAYDYWGQGTQVTVSS”, with “high polyreactivity”.
For the sequence “QVQLVESGGGLVQAGGSLRLSCAASGSILYRYAMGWYRQAPGKERELVAGISKTGSSTYYADSVKGRFTISRDNAKNTVYLQMNSLKPEDTAVYYCNVRHGYSGKDYRYDYWGQGTQVTVSS”, the “polyreactivity (PSR sort gate)” value was “low polyreactivity”.
As to “QVQLVESGGGLVQAGGSLRLSCAASGSILYVNAMGWYRQAPGKERELVASITDGGNTYYADSVKGRFTISRDNAKNTVYLQMNSLKPEDTAVYYCNAVGRIKVDYGLEYWGQGTQVTVSS”, the “polyreactivity (PSR sort gate)” value was “low polyreactivity”.
For “QVQLVESGGGLVQAGGSLRLSCAASGSILYVYAMGWYRQAPGKERELVAVITSGGSTNYADSVKGRFTISRDNAKNTVYLQMNSLKPEDTAVYYCAADPYSVYGGDYWGQGTQVTLSS”, the “polyreactivity (PSR sort gate)” value is “low polyreactivity”.
For the sequence “QVQLVESGGGLVQAGGSLRLSCAASGSILYYYAMGWYRQAPVKERELVATITSGGTTNYADSVKGRFTISRDNAKNTVYLQMISLKPEDTAVYYCAADWAWDTKSAPAYPRAYDYWGPGTQVTVSS”, the “polyreactivity (PSR sort gate)” value is “low polyreactivity”.
Under “QVQLVESGGGLVQAGGSLRLSCAASGSIRYYAMGWYRQAPVKEREFVAAISRRGSSTNYADSVKGRFTISRDNAKNTVYLQMNSLKPDDTAVYYCARGLDVISYGYDYWGQGTQVTVSS” stands “high polyreactivity”.
As for “QVQLVESGGGLVQAGGSLRLSCAASGSIRYYYVMGWYRQAPGKERELVAAITSGGSTYYADSVKGRFTISRDNAKNTVYLQMNSLKPEDTAVYYCNARTRSLTGSRFNYWGQVTQVTVSS”, the “polyreactivity (PSR sort gate)” value was “high polyreactivity”.
Then “QVQLVESGGGLVQAGGSLRLSCAASGSISAGNAMGWYRQAPGKERELVAAITTSGGSTYYADSVKGRFTISRDNAKNTVYLQMNSLKPEDTAVYYCNVDPRKRSYDYWGQGTQVTVSS”, with “high polyreactivity”; and “QVQLVESGGGLVQAGGSLRLSCAASGSISDSNAMGSYRQAPGKERELVAAIDDSGGSTYYADSVKGRFTISRDNAKNTVYLQMNSLKPEDTAVYYCAKTKTQYLTSEIRFVYWGQGTQVTVSS”, with “low polyreactivity”.
Under “QVQLVESGGGLVQAGGSLRLSCAASGSISDTYGMGWYRQAPGKERELVASITWSSGSTDYADSVKGRFTISRDNAKNTVYLQMNSLKPAETAVYYCATYEPFYSFIFRGIYDYWGQGTQVTVSS” stands “low polyreactivity”.
“QVQLVESGGGLVQAGGSLRLSCAASGSISFYAMGWYRQAPGKERELVAAITTSGGRTYYADSVKGRFTISRDNAKNTVYLQMNSLKPEDTAVYYCNVASKGRYARYAAEYGSWGQGTQVTVSS”: the “polyreactivity (PSR sort gate)” value is “high polyreactivity”.
Under “QVQLVESGGGLVQAGGSLRLSCAASGSISGLYAMGWYRQAPGKERELVARIRWRGDSTYYADSVKGRFTISRDNAKNTVYLQMNSLNPEDTAVYYCAASAYSGKVNKYNYWGQGTQVTVSS” stands “high polyreactivity”; under “QVQLVESGGGLVQAGGSLRLSCAASGSISGLYAMGWYRQAPGKESELVAAISFSGGSTYYADSVKGRFTISRDNAKNTVYFQMNSLKPEDTAVYYCAADGQYGGVPNTSEWTFDYWGQGTQVTVSS”, “low polyreactivity”.
For the sequence “QVQLVESGGGLVQAGGSLRLSCAASGSISGRYAMGWYRQAPGKERELVAAISWIGGSTYYADSVKGRFTISRDNAKNTVYLQMNSLKPEDTAVYYCNVTIDTRTHPLLVVFYGYDYWGQGTQVTVSS”, the “polyreactivity (PSR sort gate)” value is “low polyreactivity”.
As for “QVQLVESGGGLVQAGGSLRLSCAASGSISGSNDMGWYRQAPGKERELVAAISGGSSTNYADSVKGRFTISRDNAKNTVYFQMNSLKPEDTAVYYCAARYRWFFFYGPHSPGYNYWGQGTQVTVSS”, the “polyreactivity (PSR sort gate)” value is given as “high polyreactivity”.
Under “QVQLVESGGGLVQAGGSLRLSCAASGSISGVYAMGWYRQAAGKDRALVAASSGGSGRTYYADSVKGRFTISRDNAKNTVYLQMISLKPEDTAVYYCAKTVLYSSYRKYDYWGQGSQVTVSS” stands “high polyreactivity”.
Then “QVQLVESGGGLVQAGGSLRLSCAASGSISGYNAMGWYRPAPGKERELVAVITTDGSTNYADSVKGRFTISRDNAKNTVYLQMNSLKPEDTAVYYCNTDDGWRLLWEYDYWGQGTQVTVSS”, with “low polyreactivity”; and “QVQLVESGGGLVQAGGSLRLSCAASGSISGYYAMGWYRQAPGKERELVASIRYTGARTYYADSVKGRFTISRDNAKNTVYLQMNSLKPEDTAVYYCAADFRSVFSKYSYYLYFDFDYWGQGTQVTVSS”, with “low polyreactivity”.
Take “QVQLVESGGGLVQAGGSLRLSCAASGSISKINAMGWYRQAPGKERELVAAINTGDSTYYADSVKGRFTISRDNAKNTVYLQMNSLKPEDTAVYYCATVVYTWFLAEEDDYCGQGTQVTVSS”: the “polyreactivity (PSR sort gate)” value is listed as “low polyreactivity”.
For the sequence “QVQLVESGGGLVQAGGSLRLSCAASGSISPQNVMGWYRQAPGKERELVAAITWTGTSTYADSVKGRFTISRDNAKNTVYLQMNSLKPEDTAVYYCAARYYAPRWFRYDYWGQGTQVTVSS”, the “polyreactivity (PSR sort gate)” value was “low polyreactivity”.
As to “QVQLVESGGGLVQAGGSLRLSCAASGSISPQNVMGWYTQAPGKERELVAAITGGGSTNYADSVKGRFTISRDNAKNTVFLLMNSLKPEDTAVYYCNADYFQDRLDYWGQGTQVTVSS”, the “polyreactivity (PSR sort gate)” value was “low polyreactivity”.
As for “QVQLVESGGGLVQAGGSLRLSCAASGSISQTYAMGWYRQAPGKERELVAAISSSGASTYYADSVKGRFTISRDNAKNTVYLQMNSLKPEDTAVYYCAVVPSSTYHSYDYWGQGTQVTVSS”, the “polyreactivity (PSR sort gate)” value is reported as “high polyreactivity”.
Take “QVQLVESGGGLVQAGGSLRLSCAASGSISRFYAMGWYRQAPGKERELVAAISWSGGRPYYADSVKGRFTISRDKAKNTVYLQMNSLKPEDTAVYYCNAYRRYNDEDYWGQGTQVTVSS”: the “polyreactivity (PSR sort gate)” value is recorded as “high polyreactivity”.
Then “QVQLVESGGGLVQAGGSLRLSCAASGSISRGNVMGWYRQAPGKERELVAGITRGGRTNYADSVKGRFTISRDNAKNTVYLQMNSLKPEDTAVYYCATYTYYVPWRQRGGYPDFDYWGQGTQVTVSS”, with “high polyreactivity”.
With “QVQLVESGGGLVQAGGSLRLSCAASGSISRRYVMGWYRQAPGKERELVAAISTSGGSTYYADSVKGRFTISRDNAKNTVYLQMNSLKPEDTAVYYCAADLPVQGGFDYWGQGTQVTVSS”, the “polyreactivity (PSR sort gate)” value is on record as “low polyreactivity”.
Turning to “QVQLVESGGGLVQAGGSLRLSCAASGSISSKNAMGWYRQAPGKEREFGAVISGTGGSTYYADSVKGRFTISRDNAKNTVYLQMNSLKPEDTAVYYCAAAASSIVSYGYTWTYGYWGQGTQVTVSS”, the “polyreactivity (PSR sort gate)” value is “low polyreactivity”.
As for “QVQLVESGGGLVQAGGSLRLSCAASGSISSKNAMGWYRQAPGKEREFVAVISGTGGSTYYADSVKGRFTISRDNAKNTVYLQMNSLKPEDTAVYYCAAAASSIVSYGYTWTYGYWGQGTQVTVSS”, the “polyreactivity (PSR sort gate)” value was “low polyreactivity”.
Take “QVQLVESGGGLVQAGGSLRLSCAASGSISSQYGMGWYRQAPGKERELVATIRDGGRTNYADSVKGRFTISRDNAKNTVYLQMNCLKPEDTAVYYCAALYWYYYTWPLYDYWGQGSQVTVSS”: the “polyreactivity (PSR sort gate)” value is recorded as “low polyreactivity”.
Under “QVQLVESGGGLVQAGGSLRLSCAASGSISVDNTMGWYRQAPGKERELVAAISRSGGTTYYADSVKGRFTISRDNAKNTVYLQMNSLKPEDTAVYYCAKDTLRYRWRSYDYYPEMNYWGQGTQVTVSS” stands “low polyreactivity”; under “QVQLVESGGGLVQAGGSLRLSCAASGSISVPNAMGWYRQAPGKERELVAGITSGDSTHYADSVKGRFSISRDNAKNTVYIQMISLKPEDTAVYYCAAKVPEPPSLDESDYWGQGTQVTVSA”, “low polyreactivity”; under “QVQLVESGGGLVQAGGSLRLSCAASGSISVRNVMGWYRQAPGKERELVATIRRTGGSTSYADSVKGRFTISRDNAKNTVYLQMNSLKPEDTAVYYCAAVGYTTYRRYDYWGQGTQVTVSS”, “low polyreactivity”.
On to “QVQLVESGGGLVQAGGSLRLSCAASGSISVVNMGWYRQPPRKERQFVASITSSGSTTYADSVKGRFTISRDNAKNTVYLQMNSLKPEDTAVYYCAADVGTDYTYQHPAGAAYDYWGEGTQVTVSS”, for which the “polyreactivity (PSR sort gate)” value is reported as “low polyreactivity”.
Under “QVQLVESGGGLVQAGGSLRLSCAASGSISVVYDMGWYRQAPGTERELVAAIDWSGGSTYYADSVKGRFTISRDNAKNTVYLQMNSLKPEDTAVYYCAADDKVRYYWGQGTQVTVSS” stands “low polyreactivity”; under “QVQLVESGGGLVQAGGSLRLSCAASGSISVYNAMGWYRPAPGKERELVAAISWSGGRTSYADSVKGRFTISRDHAKNTVYLQMNSLKPEDTAVYYCAADELSVLWDEDYWGQVTQVTVSS”, “low polyreactivity”.
